Laboratory results from article PMC9352680, “A comprehensive thermodynamic model for RNA binding by the Saccharomyces cerevisiae Pumilio protein PUF4”.

T1: PUF4 RNA-binding domain (Saccharomyces cerevisiae, UniProt P25339 537-888)
T1 sequence: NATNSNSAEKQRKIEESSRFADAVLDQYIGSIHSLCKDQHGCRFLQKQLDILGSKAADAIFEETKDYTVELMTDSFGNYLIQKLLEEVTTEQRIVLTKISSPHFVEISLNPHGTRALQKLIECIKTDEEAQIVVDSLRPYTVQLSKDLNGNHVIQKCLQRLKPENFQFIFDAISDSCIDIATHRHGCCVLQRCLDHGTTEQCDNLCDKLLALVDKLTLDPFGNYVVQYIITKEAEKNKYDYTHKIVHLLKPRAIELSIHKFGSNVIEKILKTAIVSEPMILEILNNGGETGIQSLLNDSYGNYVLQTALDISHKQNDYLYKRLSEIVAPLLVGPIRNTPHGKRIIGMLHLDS


Target: T1, PUF4 RNA-binding domain
Assay: Mg; RNA-MaP; 20 mM Na-HEPES pH 7.4, 30 mM KOAc, 0.75 mM MgCl2, 0.1% Tween-20, 5% glycerol, 0.1 mg/mL BSA, 2 mM DTT; 25 C; 0.0125-409.6 nM protein
Conditions: tags: N-His6-TEV cleaved; C-SNAP kept, Cy3B-labelled; label: tethered on chip by stalled RNA polymerase

Row | Binder | Kd [nM]
1 | UCUCUUGCUAUAUAUUAAUUCUCUU (ssRNA) [Id_ii_S1_P4E.3_K4.2_C4.2_[C-2G]_[T-1C]_H4.2_A4.1_F4.1_T4.2_[G10A]] | 70.2
2 | UCUCUUUAUAUAUAUUAGUUCUCUU (ssRNA) [Id_ii_S1_P4E.3_K4.2_C4.2_[C-2T]_[T-1A]_H4.2_A4.1_F4.1_T4.2] | 9.8
3 | UCUCUUUGUAUAUAUUAGCUCUCUU (ssRNA) [Id_ii_S1_P4E.3_K4.2_C4.2_[C-2T]_[T-1G]_H4.2_A4.1_F4.1_T4.2_[T11C]] | 3.46
4 | UCUCUUUUUAUAUAUUAGUUCUCUU (ssRNA) [Id_ii_S1_P4E.3_K4.2_C4.2_[C-2T]_H4.2_A4.1_F4.1_T4.2] | 8.51
5 | UCUCUUUAUAUAUAUUACCUCUCUU (ssRNA) [Id_ii_S1_P4E.3_K4.2_C4.2_[C-2T]_[T-1A]_H4.2_A4.1_F4.1_T4.2_[G10C]_[T11C]] | 29.6
6 | UCUCUUUCUAUAUAUUAUUUCUCUU (ssRNA) [Id_ii_S1_P4E.3_K4.2_C4.2_[C-2T]_[T-1C]_H4.2_A4.1_F4.1_T4.2_[G10T]] | 21.6
7 | UCUCUUUAUAUAUAUUACAUCUCUU (ssRNA) [Id_ii_S1_P4E.3_K4.2_C4.2_[C-2T]_[T-1A]_H4.2_A4.1_F4.1_T4.2_[G10C]_[T11A]] | 28.9
8 | UCUCUUUUUAUAUAUUAAUUCUCUU (ssRNA) [Id_ii_S1_P4E.3_K4.2_C4.2_[C-2T]_H4.2_A4.1_F4.1_T4.2_[G10A]] | 28.9
9 | UCUCUUUCUAUAUAUUACCUCUCUU (ssRNA) [Id_ii_S1_P4E.3_K4.2_C4.2_[C-2T]_[T-1C]_H4.2_A4.1_F4.1_T4.2_[G10C]_[T11C]] | 25.2
10 | UCUCUUUCUAUAUAUUACGUCUCUU (ssRNA) [Id_ii_S1_P4E.3_K4.2_C4.2_[C-2T]_[T-1C]_H4.2_A4.1_F4.1_T4.2_[G10C]_[T11G]] | 30.7
11 | UCUCUUUUUAUAUAUUAACUCUCUU (ssRNA) [Id_ii_S1_P4E.3_K4.2_C4.2_[C-2T]_H4.2_A4.1_F4.1_T4.2_[G10A]_[T11C]] | 31.8
12 | UCUCUUUCUAUAUAUUACUUCUCUU (ssRNA) [Id_ii_S1_P4E.3_K4.2_C4.2_[C-2T]_[T-1C]_H4.2_A4.1_F4.1_T4.2_[G10C]] | 23.8
13 | UCUCUUACUAUAUAUUACCUCUCUU (ssRNA) [Id_ii_S1_P4E.3_K4.2_C4.2_[C-2A]_[T-1C]_H4.2_A4.1_F4.1_T4.2_[G10C]_[T11C]] | 38.3
14 | UCUCUUUUUAUAUAUUACCUCUCUU (ssRNA) [Id_ii_S1_P4E.3_K4.2_C4.2_[C-2T]_H4.2_A4.1_F4.1_T4.2_[G10C]_[T11C]] | 26.2
15 | UCUCUUACUAUAUAUUAUGUCUCUU (ssRNA) [Id_ii_S1_P4E.3_K4.2_C4.2_[C-2A]_[T-1C]_H4.2_A4.1_F4.1_T4.2_[G10T]_[T11G]] | 22.5
16 | UCUCUUGUUAUAUAUUAGUUCUCUU (ssRNA) [Id_ii_S1_P4E.3_K4.2_C4.2_[C-2G]_H4.2_A4.1_F4.1_T4.2] | 8.13

Row | Binder | Kd [nM]
17 | UCUCUUUAUAUAUAUUAUCUCUCUU (ssRNA) [Id_ii_S1_P4E.3_K4.2_C4.2_[C-2T]_[T-1A]_H4.2_A4.1_F4.1_T4.2_[G10T]_[T11C]] | 24.5
18 | UCUCUUUGUAUAUAUUAAUUCUCUU (ssRNA) [Id_ii_S1_P4E.3_K4.2_C4.2_[C-2T]_[T-1G]_H4.2_A4.1_F4.1_T4.2_[G10A]] | 4.75
19 | UCUCUUUUUAUAUAUUACUUCUCUU (ssRNA) [Id_ii_S1_P4E.3_K4.2_C4.2_[C-2T]_H4.2_A4.1_F4.1_T4.2_[G10C]] | 21
20 | UCUCUUUGUGUUUUAUCUCUU (ssRNA) [Ib_S1_P4E.1_K4.1_C4.1_H4.1_[A4G]_A4.1_[A6T]_F4.1_T4.1] | 13.1
21 | UCUCUUGUUAUAUAUUACUUCUCUU (ssRNA) [Id_ii_S1_P4E.3_K4.2_C4.2_[C-2G]_H4.2_A4.1_F4.1_T4.2_[G10C]] | 16.9
22 | UCUCUUUGUAUAUAUUAUUUCUCUU (ssRNA) [Id_ii_S1_P4E.3_K4.2_C4.2_[C-2T]_[T-1G]_H4.2_A4.1_F4.1_T4.2_[G10T]] | 4.46
23 | UCUCUUUGUAUAUAUUAACUCUCUU (ssRNA) [Id_ii_S1_P4E.3_K4.2_C4.2_[C-2T]_[T-1G]_H4.2_A4.1_F4.1_T4.2_[G10A]_[T11C]] | 2.38
24 | UCUCUUUCUAUAUAUUAUAUCUCUU (ssRNA) [Id_ii_S1_P4E.3_K4.2_C4.2_[C-2T]_[T-1C]_H4.2_A4.1_F4.1_T4.2_[G10T]_[T11A]] | 34.9
25 | UCUCUUUUUAUAUAUUAGCUCUCUU (ssRNA) [Id_ii_S1_P4E.3_K4.2_C4.2_[C-2T]_H4.2_A4.1_F4.1_T4.2_[T11C]] | 10.3
26 | UCUCUUUGUCUGUUAUCUCUU (ssRNA) [Ib_S1_P4E.1_K4.1_C4.1_H4.1_[A4C]_A4.1_[A6G]_F4.1_T4.1] | 626
27 | UCUCUUUGUUAAUUAUCUCUU (ssRNA) [Ib_S1_P4E.1_K4.1_C4.1_H4.1_[A4T]_A4.1_[T5A]_F4.1_T4.1] | 43.5
28 | UCUCUUUGUAUAUAUUAUCUCUCUU (ssRNA) [Id_ii_S1_P4E.3_K4.2_C4.2_[C-2T]_[T-1G]_H4.2_A4.1_F4.1_T4.2_[G10T]_[T11C]] | 4.63
29 | UCUCUUUUUAUAUAUUAAGUCUCUU (ssRNA) [Id_ii_S1_P4E.3_K4.2_C4.2_[C-2T]_H4.2_A4.1_F4.1_T4.2_[G10A]_[T11G]] | 485
30 | UCUCUUGUUAUAUAUUACCUCUCUU (ssRNA) [Id_ii_S1_P4E.3_K4.2_C4.2_[C-2G]_H4.2_A4.1_F4.1_T4.2_[G10C]_[T11C]] | 13
31 | UCUCUUUUUAUAUAUUAUCUCUCUU (ssRNA) [Id_ii_S1_P4E.3_K4.2_C4.2_[C-2T]_H4.2_A4.1_F4.1_T4.2_[G10T]_[T11C]] | 19.8
